Source: patent publication US20090169520A1, “Compounds, Pharmaceutical Compositions and Therapeutic Methods of Preventing and Treating Diseases and Disorders Associated With Amyloid Fibril Formation” (YISSUM RESEARCH DEVELOPMENT COMPANY OF THE HEBREW …, priority 2005, published 2009)
Marks after values point to notes of the source that are not given here.

T1: Amylin (Homo sapiens, UniProt P10997)
T1 sequence (P10997 34-70 limits assumed): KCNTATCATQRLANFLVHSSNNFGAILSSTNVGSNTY


How the values were obtained:
Type in all cases: biochemical
[1] = molecular target: T2, Aβ (1-40) peptide (Homo sapiens, UniProt P05067); assay: In vitro formation of amyloid fibril from Aβ (1-40), Thioflavin T fluorescence; conditions: for effect on Aβ fibril formation (in words): 33 μM Aβ; for Lag (fold change) / Rate (fold change): relative to No addition, asterisk = statistically significant
T2 construct: synthetic Aβ (1-40) peptide; purchased Biosource, Camarillo, Calif., USA; host or cells: chemical synthesis
T2 sequence (P05067 672-711 limits assumed): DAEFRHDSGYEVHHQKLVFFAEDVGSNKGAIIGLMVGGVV
Source text: In vitro formation of amyloidfibril—In vitro formation of amyloid fibril was in the presence of the synthetic Aβ (1-40) peptide (Biosource, Camarillo, Calif., USA) as a precursor. The reporter molecule was Thioflavin T (ThT) (Sigma, Cat. No. T-3516, Jerusalem, Israel), a benzothiazole dye that undergoes a shift in its excitation spectrum (from 340 nm to 450 nm) when interacting with β-sheet amyloid structures. The resultant ThT fluorescence signal is proportional to the amount of amyloid formed (LeVine, 1993). A stock solution of Aβ in dimethylsulfoxide (DMSO) was diluted with phosphate-buffered saline (PBS) containing 0.02% Na-Azid to a final concentration of 162 μM and 20 μl of the diluted Aβ solution was placed in each well of a 96 multiwell plate (Nunc, Roskilde, Denmark). After 20 minutes of pre-incubation at room temperature of the Aβ samples (20 μl), 80 μl of 1.25 μM ThT in 50 mM glycine buffer, pH 8.5, was added. Incubation was with shaking at 200 rpm for 6 to 8 hours at the noted temperatures. Fluorescence was measured continuously or at 30-40 minute intervals, using a Spectro-fluorometer (Tecan, Maennedorf, Switzerland). Excitation and emission wavelengths were 450 nm and 485 nm, respectively. Enhancement of the fibrillation process by the different combinations of water-dissolved cholinesterases and peptides mimicking fragments thereof, was evaluated by dissecting the time curves into two stages: the lag before the onset of the fluorescence increase (the nucleation process) and the average rate of fluorescence increase at several time points (rate of fibrils formation). Statistics analysis was performed using the Kaleidagraph Software (Reading, Pa., USA).
BChE attenuates amyloid fibrils formation—Amyloid fibril (Aβ) formation was quantified by measuring changes in ThT fluorescence. As predicted, Aβ fibrils were spontaneously formed in vitro provided that the Aβ peptide was present above 5 μM. […] Reactions were performed in the absence or presence of increasing concentrations of purified human BChE (SEQ ID NO:2; FIG. 1a), recombinant ACHE-S (SEQ ID NO:6; FIG. 1b) or both (FIGS. 1c and d). […] Due to the complex kinetics of the fibril formation process the apparent rate of change in ThT fluorescence was repeatedly determined during the exponential phase of increase in its signal (at 390±20 minutes). […] In contrast, addition of similar doses of AChE to Aβ, predictably shortened by half the lag time prior to fibril formation, again in a dose dependent manner (FIG. 1e). The lag period therefore decreased from 240 minutes to 150 minutes and the maximal rate of fibril formation increased from 0.057 to 0.116 fluorescence units (FU)/min for Aβ alone as compared to Aβ in the presence of 0.36 μM AChE-S (FIG. 1b and Table 7, hereinbelow). When increasing doses of hBChE were added to a combined mix of 33 μM Aβ with 0.36 μM AChE-S, a dose-dependent interference with the fibril formation process was observed (FIG. 1c and 2a). Thus, BChE is capable of reducing the rate of fibrillation of Aβ alone, or Aβ which is formed in the presence of AChE.

[2] = Rate of hydrolysis of AThCh/BThCh by cholinesterases; conditions: for Rate of hydrolysis of AThCh/BThCh: average of three experiments
Protocol: BChE biochemistry—Serum cholinesterase catalytic activity measurements are based on a spectrophotometric method adapted to a microtiter plate assay. Butyrylthiocholine (BTCh, Sigma) hydrolysis rates are measured following 20 minutes incubation with 5×10^−5 M tetraisopropyl pyrophosphoramide (iso-OMPA, Sigma), a specific BChE inhibitor or 10^−5 M 1,5-bis(4-allyldimethylammoniumphenyl) pentan-[…] dibromide (BW284c51, Sigma, A9013), a specific AChE inhibitor. Addition of both inhibitors reduces hydrolysis to the rate of spontaneous hydrolysis measured in control reactions lacking enzyme or substrate, attesting to the specificity of these serum activities. Readings at 405 nm are repeated at 2-minute intervals for 20 minutes. Non-enzymatic hydrolysis of substrate is subtracted from the total rate of hydrolysis. Enzyme activity is calculated using the molar extinction coefficient for 5-thio-2-nitrobenzoate [13,600 M^−1×cm^−1] [Ellman, G. L. et al. (1961) Biochem. Pharmacol. 7:88-95].
In addition, BChE is soluble and thus accessible to circulating ACh. Moreover, the substrate of preference of BChE is different than that of ACHE. Thus, over the range of substrate concentrations 0.1 to 25 mM, the ratio of hydrolysis of AThCh relative to BThCh differs between the enzymes (Table 8, hereinbelow).

[3] = molecular target: T1, Amylin; assay: Amylin amyloid fibril formation, Thioflavin T fluorescence; conditions: 20 μM amylin
Protocol: FIG. 6 is a graph illustrating the effect of BChE in preventing amylin amyloid fibril formation. Amylin at a concentration of 20 μM was incubated with Thiofalvin T (at a concentration of 1 μM) and the formation of amyloid fibril was measured by following the Thiofalvin T fluorescence intensity [excitation (450 nm); emission (485 nm)] in the presence or absence of 0.24 μM BChE (purified from pooled human plasma). Note that the addition of BChE increases the lag time for amylin fibrillation from 30 minutes to 110 minutes.
To test the ability of BChE to prevent amylin amyloid fibril formation, the present inventors have tested the rate of amylin fibrillation (at a concentration of 20 μM) in the presence or absence of 0.24 μM BChE (purified from pooled human serum). As is shown in FIG. 6, BChE completely attenuated the formation of amylin fibrils for 100 minutes, and increased the lag time of amyloid fibril formation from 30 minutes to 110 minutes.

Molecule | effect on Aβ fibril formation (in words) ([1]; ThT fluorescence) | Lag (fold change) [1] | Rate (fold change) [1] | Rate of hydrolysis of AThCh/BThCh ([2]; Substrate 0.1 mM) | Rate of hydrolysis of AThCh/BThCh ([2]; Substrate 25.0 mM) | BChE capacity to hydrolyze ACh, fold lower than that of AChE ([2]; increased / high ACh concentrations (as in 25 mM)) [fold] | BChE capacity of ACh hydrolysis in the circulation, fold lower than that of AChE ([2]; normal circumstances, low ACh) | time for which fibril formation was totally prevented ([1]; 0.4 μM BChE added to 33 μM Aβ) | concentration needed for complete attenuation of Aβ fibrillation ([1]; attenuation for 400 minutes of incubation, ThT fluorescence) [µg/mL] | time for which formation of amylin fibrils was completely attenuated ([3]; 0.24 μM BChE) [min] | lag time of amylin amyloid fibril formation ([3]; 1 μM ThT, 0.24 μM BChE (without BChE 30 minutes)) [min] | maximal rate of fibril formation ([1]; Aβ in the presence of 0.36 μM AChE-S (Aβ alone 0.057)) [FU/min] | lag period prior to fibril formation ([1]; Aβ in the presence of 0.36 μM AChE-S (Aβ alone 240 minutes)) [min] | AThCh hydrolysis ratio difference of AChE:BChE ([2]; at 0.1 mM substrate) [fold] | AThCh hydrolysis ratio difference of AChE:BChE ([2]; at 25 mM substrate) [fold]
ASP63: synthetic AChE-S C-terminal peptide, mimics residues 548-610 in hAChE (ASP63 Synthetic peptide, synthetic AChE-S C-terminal peptide, mimics residues 548-610 in hAChE) PLEVRRGLRAQACAFWNRFLPKLLSATDTLDEAERQWKAEFHRWSSYMVHWKNQFDHYSKQDR | no significant effect on amyloid formation | 1.5 fold change | 0.7 fold change | – | – | – | – | – | – | – | – | – | – | – | –
BChE: Purified human BChE from human serum (Sigma) (protein, listed as Homo sapiens) MHSKVTIICIRFLFWFLLLCMLIGKSHTEDDIIIATKNGKVRGMNLTVFGGTVTAFLGIPYAQPPLGRLRFKKPQSLTKWSDIWNATKYANSCCQNIDQSFPGFHGSEMWNPNTDLSEDCLYLNVWIPAPKPKNATVLIWIYGGGFQTGTSSLHVYDGKFLARVERVIVVSMNYRVGALGFLALPGNPEAPGNMGLFDQQLALQWVQKNIAAFGGNPKSVTLFGESAGAASVSLHLLSPGSHSLFTRAILQSGSFNAPWAVTSLYEARNRTLNLAKLTGCSRENETEIIKCLRNKDPQEILLNEAFVVPYGTPLSVNFGPTVDGDFLTDMPDILLELGQFKKTQILVGVNKDEGTAFLVYGAPGFSKDNNSIITRKEFQEGLKIFFPGVSEFGKESILFHYTDWVDDQRPENYREALGDVVGDYNFICPALEFTKKFSEWGNNAFFYYFEHRSSKLPWPEWMGVMHGYEIEFVFGLPLERRDNYTKAEEILSRSIVKRWANFAKYGNPNETQNNSTSWPVFKSTEQKYLTLNTESTRIMTKLRAQQCRFWTSFFPKVLEMTGNIDEAEWEWKAGFHRWNNYMMDWKNQFNDYTSKKESCVGL | prolonged the lag and reduced the apparent rate of amyloid formation | 1.4* fold change | 0.3* fold change | 0.45 | 0.20 | 12 | ca. 80 fold | over 600 minutes | 30 | 100 | 110 | – | – | – | –
AChE-S: recombinant human ACHE-S, prepared from an ACHE cDNA clone (Sigma) (protein, listed as Homo sapiens) MRPPQCLLHTPSLASPLLLLLLWLLGGGVGAEGREDAELLVTVRGGRLRGIRLKTPGGPVSAFLGIPFAEPPMGPRRFLPPEPKQPWSGVVDATTFQSVCYQYVDTLYPGFEGTEMWNPNRELSEDCLYLNVWTPYPRPTSPTPVLVWIYGGGFYSGASSLDVYDGRFLVQAERTVLVSMNYRVGAFGFLALPGSREAPGNVGLLDQRLALQWVQENVAAFGGDPTSVTLFGESAGAASVGMHLLSPPSRGLFHRAVLQSGAPNGPWATVGMGEARRRATQLAHLVGCPPGGTGGNDTELVACLRTRPAQVLVNHEWHVLPQESVFRFSFVPVVDGDFLSDTPEALINAGDFHGLQVLVGVVKDEGSYFLVYGAPGFSKDNESLISRAEFLAGVRVGVPQVSDLAAEAVVLHYTDWLHPEDPARLREALSDVVGDHNVVCPVAQLAGRLAAQGARVYAYVFEHRASTLSWPLWMGVPHGYEIEFIFGIPLDPSRNYTAEEKIFAQRLMRYWANFARTGDPNEPRDPKAPQWPPYTAGAQQYVSLDLRPLEVRRGLRAQACAFWNRFLPKLLSATDTLDEAERQWKAEFHRWSSYMVHWKNQFDHYSKQDRCSDL | – | 0.6* fold change | 2.1* fold change | – | – | – | – | – | – | – | – | 0.116 | 150 | – | –
hRBC AChE: human erythrocytes ACHE compared with serum BChE in Table 8 (protein) EGREDAELLVTVRGGRLRGIRLKTPGGPVSAFLGIPFAEPPMGPRRFLPPEPKQPWSGVVDATTFQSVCYQYVDTLYPGFEGTEMWNPNRELSEDCLYLNVWTPYPRPTSPTPVLVWIYGGGFYSGASSLDVYDGRFLVQAERTVLVSMNYRVGAFGFLALPGSREAPGNVGLLDQRLALQWVQENVAAFGGDPTSVTLFGESAGAASVGMHLLSPPSRGLFHRAVLQSGAPNGPWATVGMGEARRRATQLAHLVGCPPGGTGGNDTELVACLRTRPAQVLVNHEWHVLPQESVFRFSFVPVVDGDFLSDTPEALINAGDFHGLQVLVGVVKDEGSYFLVYGAPGFSKDNESLISRAEFLAGVRVGVPQVSDLAAEAVVLHYTDWLHPEDPARLREALSDVVGDHNVVCPVAQLAGRLAAQGARVYAYVFEHRASTLSWPLWMGVPHGYEIEFIFGIPLDPSRNYTAEEKIFAQRLMRYWANFARTGDPNEPRDPKAPQWPPYTAGAQQYVSLDLRPLEVRRGLRAQACAFWNRFLPKLLSATDTLDEAERQWKAEFHRWSSYMVHWKNQFDHYSKQDRCSDL | – | – | – | 120 | 7.2 | – | – | – | – | – | – | – | – | 245 | 36
